From article PMC5446187, “USP9X counteracts differential ubiquitination of NPHP5 by MARCH7 and BBS11 to regulate ciliogenesis” (PLoS Genetics, 2017)

How the values were obtained:
BBS11/TRIM32, endogenous = molecular target: T1, BBS11/TRIM32, endogenous (human (endogenous in HEK293), UniProt Q13049 1-653); assay: pull-down; 1 μg purified Flag-NPHP5 mixed with 1 μg purified USP9X, BBS11 or MARCH7 bound to beads, 4°C, 2 h, extensive washing, Western blot; details: both partners purified
T1 construct: E3 ubiquitin ligase BBS11/TRIM32, endogenous in HEK293; also called endogenous BBS11; source: endogenous, HEK293 lysate; also immunoprecipitated from HEK293 with anti-BBS11 antibody, 500 mM NaCl washes, kept on beads
T1 sequence (looked up): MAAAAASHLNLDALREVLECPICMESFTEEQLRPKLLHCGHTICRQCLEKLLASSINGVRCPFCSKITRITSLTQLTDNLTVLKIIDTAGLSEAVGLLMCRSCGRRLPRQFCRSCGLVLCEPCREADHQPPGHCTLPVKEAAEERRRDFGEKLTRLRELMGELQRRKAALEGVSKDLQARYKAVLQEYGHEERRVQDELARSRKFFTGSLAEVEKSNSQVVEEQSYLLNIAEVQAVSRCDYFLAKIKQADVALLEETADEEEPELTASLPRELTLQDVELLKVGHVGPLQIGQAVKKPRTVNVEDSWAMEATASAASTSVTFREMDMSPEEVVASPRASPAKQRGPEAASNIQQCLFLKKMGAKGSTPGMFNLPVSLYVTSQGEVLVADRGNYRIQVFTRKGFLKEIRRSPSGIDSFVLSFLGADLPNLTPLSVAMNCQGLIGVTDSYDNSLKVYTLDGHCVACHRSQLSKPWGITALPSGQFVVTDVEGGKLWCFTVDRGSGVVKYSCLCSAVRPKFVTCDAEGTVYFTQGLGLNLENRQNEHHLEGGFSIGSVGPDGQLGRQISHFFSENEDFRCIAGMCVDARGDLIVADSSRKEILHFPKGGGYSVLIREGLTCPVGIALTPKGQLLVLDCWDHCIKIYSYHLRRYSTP

[1] = molecular target: T2, MARCH7/axotrophin, endogenous (human (endogenous in HEK293), UniProt Q9H992 1-704); assay: as above; details: both partners purified
T2 construct: E3 ubiquitin ligase MARCH7/axotrophin, endogenous in HEK293; also called endogenous MARCH7; source: endogenous, HEK293 lysate; also immunoprecipitated from HEK293 with anti-MARCH7 antibody, 500 mM NaCl washes, kept on beads
T2 sequence (looked up): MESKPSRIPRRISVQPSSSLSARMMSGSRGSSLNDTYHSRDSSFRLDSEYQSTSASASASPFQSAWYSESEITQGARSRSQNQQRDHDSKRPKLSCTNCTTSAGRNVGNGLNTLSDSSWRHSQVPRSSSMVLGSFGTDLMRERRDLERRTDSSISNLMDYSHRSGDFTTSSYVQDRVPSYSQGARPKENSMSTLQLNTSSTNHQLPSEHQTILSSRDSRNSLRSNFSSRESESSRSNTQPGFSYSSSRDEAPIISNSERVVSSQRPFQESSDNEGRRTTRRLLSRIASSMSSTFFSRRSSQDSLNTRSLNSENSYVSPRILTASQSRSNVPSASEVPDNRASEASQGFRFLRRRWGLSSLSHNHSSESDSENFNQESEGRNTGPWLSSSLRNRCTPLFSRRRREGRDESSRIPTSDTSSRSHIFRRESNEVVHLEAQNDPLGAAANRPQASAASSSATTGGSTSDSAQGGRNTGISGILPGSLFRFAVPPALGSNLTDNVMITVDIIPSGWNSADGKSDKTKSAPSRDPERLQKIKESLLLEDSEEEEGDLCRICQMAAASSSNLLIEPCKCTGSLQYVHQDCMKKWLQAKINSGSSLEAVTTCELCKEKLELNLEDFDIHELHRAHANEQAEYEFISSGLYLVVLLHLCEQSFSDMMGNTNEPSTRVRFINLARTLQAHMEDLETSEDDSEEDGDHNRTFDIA

[2] = molecular target: T3, GFP-USP9X wild type (mouse) (mouse, UniProt P70398 1-2559); assay: co-IP; anti-Flag immunoprecipitation from lysates of HEK293 cells expressing Flag-NPHP5 or its fragments (alone or with GFP-tagged partner), Western blot; details: partners not purified
T3 construct: mouse USP9X cDNA (from S. Wood) sub-cloned into pEGFP-C1; pEGFP-C1 is expected to place EGFP at the N-terminus (surmise); also called pEGFP-C1-USP9X; purified USP9X; source: HEK293, transfected, in lysate; also purified from HEK293 (anti-GFP immunoprecipitation, 500 mM NaCl washes, kept on beads)
T3 sequence (P70398 whole entry, the tested form may be a part): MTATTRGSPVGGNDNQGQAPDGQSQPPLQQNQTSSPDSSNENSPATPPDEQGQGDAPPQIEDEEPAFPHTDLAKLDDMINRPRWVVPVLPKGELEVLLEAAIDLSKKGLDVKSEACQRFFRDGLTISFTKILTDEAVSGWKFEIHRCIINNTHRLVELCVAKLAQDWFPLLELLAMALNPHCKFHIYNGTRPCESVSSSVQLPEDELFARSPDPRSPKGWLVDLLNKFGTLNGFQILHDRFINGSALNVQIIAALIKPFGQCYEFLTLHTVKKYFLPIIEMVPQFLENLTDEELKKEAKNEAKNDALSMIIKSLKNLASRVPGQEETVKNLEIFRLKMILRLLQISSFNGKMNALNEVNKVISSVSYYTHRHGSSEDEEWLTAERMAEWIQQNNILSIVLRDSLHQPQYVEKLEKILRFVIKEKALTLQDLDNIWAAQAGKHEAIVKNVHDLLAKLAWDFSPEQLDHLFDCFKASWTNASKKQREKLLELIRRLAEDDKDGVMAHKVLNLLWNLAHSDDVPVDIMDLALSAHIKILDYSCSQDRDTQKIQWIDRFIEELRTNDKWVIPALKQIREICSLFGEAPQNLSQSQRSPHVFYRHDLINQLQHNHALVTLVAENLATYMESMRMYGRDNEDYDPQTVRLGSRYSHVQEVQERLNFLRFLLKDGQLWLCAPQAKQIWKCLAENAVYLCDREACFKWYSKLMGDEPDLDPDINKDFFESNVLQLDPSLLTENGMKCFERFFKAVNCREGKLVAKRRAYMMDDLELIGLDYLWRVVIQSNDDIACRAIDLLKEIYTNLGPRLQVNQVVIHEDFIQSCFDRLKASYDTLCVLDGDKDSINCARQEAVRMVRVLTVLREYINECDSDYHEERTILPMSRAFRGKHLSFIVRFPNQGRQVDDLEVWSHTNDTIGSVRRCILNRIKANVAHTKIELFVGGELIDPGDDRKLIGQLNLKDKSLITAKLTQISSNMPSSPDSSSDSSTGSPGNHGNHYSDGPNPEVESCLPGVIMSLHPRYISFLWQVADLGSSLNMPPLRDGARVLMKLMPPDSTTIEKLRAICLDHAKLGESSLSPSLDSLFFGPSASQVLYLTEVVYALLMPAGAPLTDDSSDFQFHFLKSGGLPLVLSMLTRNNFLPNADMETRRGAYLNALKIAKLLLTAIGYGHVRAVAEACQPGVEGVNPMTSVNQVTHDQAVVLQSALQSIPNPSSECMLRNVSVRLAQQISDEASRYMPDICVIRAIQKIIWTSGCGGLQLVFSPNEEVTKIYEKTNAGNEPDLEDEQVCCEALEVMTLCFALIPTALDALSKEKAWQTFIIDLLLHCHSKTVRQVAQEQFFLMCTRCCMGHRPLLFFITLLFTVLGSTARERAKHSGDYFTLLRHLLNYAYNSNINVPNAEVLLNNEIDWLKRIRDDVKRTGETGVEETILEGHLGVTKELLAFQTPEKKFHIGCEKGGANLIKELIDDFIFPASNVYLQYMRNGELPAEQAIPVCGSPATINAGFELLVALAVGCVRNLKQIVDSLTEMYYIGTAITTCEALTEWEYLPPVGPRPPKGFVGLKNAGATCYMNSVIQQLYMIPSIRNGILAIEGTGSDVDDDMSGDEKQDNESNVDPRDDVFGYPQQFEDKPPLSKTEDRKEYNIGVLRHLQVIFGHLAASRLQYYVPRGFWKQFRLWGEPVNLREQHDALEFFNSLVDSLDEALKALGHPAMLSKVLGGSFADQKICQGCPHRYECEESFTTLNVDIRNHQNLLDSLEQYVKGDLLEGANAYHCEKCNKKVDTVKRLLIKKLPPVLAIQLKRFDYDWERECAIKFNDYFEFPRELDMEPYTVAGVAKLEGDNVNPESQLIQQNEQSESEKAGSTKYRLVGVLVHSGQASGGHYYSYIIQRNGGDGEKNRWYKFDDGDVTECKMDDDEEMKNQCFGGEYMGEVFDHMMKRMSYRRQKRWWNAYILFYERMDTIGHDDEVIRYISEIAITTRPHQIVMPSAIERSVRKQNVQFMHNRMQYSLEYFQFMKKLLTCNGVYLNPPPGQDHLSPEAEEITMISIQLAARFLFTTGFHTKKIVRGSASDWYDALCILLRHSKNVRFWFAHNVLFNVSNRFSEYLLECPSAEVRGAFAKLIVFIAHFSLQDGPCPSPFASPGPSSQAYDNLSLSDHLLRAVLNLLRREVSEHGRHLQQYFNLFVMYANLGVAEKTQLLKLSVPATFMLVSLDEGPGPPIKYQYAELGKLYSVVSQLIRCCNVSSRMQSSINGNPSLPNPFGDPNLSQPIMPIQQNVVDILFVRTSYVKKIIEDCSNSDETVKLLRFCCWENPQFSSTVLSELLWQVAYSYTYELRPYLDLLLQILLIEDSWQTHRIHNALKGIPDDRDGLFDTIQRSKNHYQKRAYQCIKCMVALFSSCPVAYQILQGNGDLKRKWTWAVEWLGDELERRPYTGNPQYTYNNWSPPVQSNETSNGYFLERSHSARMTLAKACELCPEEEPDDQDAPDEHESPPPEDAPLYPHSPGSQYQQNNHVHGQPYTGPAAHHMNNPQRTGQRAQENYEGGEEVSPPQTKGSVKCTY

[3] = molecular target: T4, GFP-USP9X catalytically inactive mutant (C1566S) (mouse) (mouse, UniProt P70398 1-2559, C1566S); assay: as above; details: partners not purified
T4 construct: mouse USP9X C1566S cDNA (from S. Wood) sub-cloned into pEGFP-C1; pEGFP-C1 is expected to place EGFP at the N-terminus (surmise); also called GFP-USP9X mutant (C1566S); pEGFP-C1-USP9X(C1566S); source: HEK293, transfected, in lysate; also purified from HEK293 (anti-GFP immunoprecipitation, 500 mM NaCl washes, kept on beads)
T4 sequence (P70398 whole entry C1566S): as the sequence (P70398 whole entry, the tested form may be a part) above, with C1566S counted along it

Measured: binding result

B1: Flag-NPHP5 (nephrocystin-5), full length 1-598 (natural protein, UniProt Q15051 1-598, looked up)
chain: MKPTGTDPRILSIAAEVAKSPEQNVPVILLKLKEIINITPLGSSELKKIKQDIYCYDLIQYCLLVLSQDYSRIQGGWTTISQLTQILSHCCVGLEPGEDAEEFYNELLPSAAENFLVLGRQLQTCFINAAKAEEKDELLHFFQIVTDSLFWLLGGHVELIQNVLQSDHFLHLLQADNVQIGSAVMMMLQNILQINSGDLLRIGRKALYSILDEVIFKLFSTPSPVIRSTATKLLLLMAESHQEILILLRQSTCYKGLRRLLSKQETGTEFSQELRQLVGLLSPMVYQEVEEQKLHQAACLIQAYWKGFQTRKRLKKLPSAVIALQRSFRSKRSKMLLEINRQKEEEDLKLQLQLQRQRAMRLSRELQLSMLEIVHPGQVEKHYREMEEKSALIIQKHWRGYRERKNFHQQRQSLIEYKAAVTLQRAALKFLAKCRKKKKLFAPWRGLQELTDARRVELKKRVDDYVRRHLGSPMSDVVSRELHAQAQERLQHYFMGRALEERAQQHREALIAQISTNVEQLMKAPSLKEAEGKEPELFLSRSRPVAAKAKQAHLTTLKHIQAPWWKKLGEESGDEIDVPKDELSIELENLFIGGTKPP
notes: also called IQCB1; source: HEK293, transfected, in lysate; also purified from HEK293 (anti-Flag immunoprecipitation, 500 mM NaCl washes, eluted with Flag peptide)
binds: BBS11/TRIM32, endogenous | [1] | [2] | [3]
